Target: T1, 670-689 VP3 peptide (rhesus rotavirus RRV strain)
T1 construct: source: synthetic peptide (Gencript)
Test: BLI
Settings: both partners purified

B1: PFDN3 protein (His tag removed) (natural protein)
chain: MAAVKDSCGKGEMATGNGRRLHLGIPEAVFVEDVDSFMKQPGNETADTVLKKLDEQYQKYKFMELNLAQKKRRLKGQIPEIKQTLEILKYMQKKKESTNSMETRFLLADNLYCKASVPPTDKVCLWLGANVMLEYDIDEAQALLEKNLSTATKNLDSLEEDLDFLRDQFTTTEVNMARVYNWDVKRRNKDDSTKNKA
notes: also called non-Tagged PFDN3; human PFDN3; source: bought: Abcam (ab139201), His tag cleaved with thrombin
B1: binds.
